The values that follow come from article PMC2975540 (Science (New York, N.Y.), 2009).

Assay [1] deals with T1, Nop5mut4 (D135A, L143K, V217E, E224A) (Methanocaldococcus jannaschii, UniProt Q58105 1-414, D135A | L143K | V217E | E224A).
T1 sequence (looked up): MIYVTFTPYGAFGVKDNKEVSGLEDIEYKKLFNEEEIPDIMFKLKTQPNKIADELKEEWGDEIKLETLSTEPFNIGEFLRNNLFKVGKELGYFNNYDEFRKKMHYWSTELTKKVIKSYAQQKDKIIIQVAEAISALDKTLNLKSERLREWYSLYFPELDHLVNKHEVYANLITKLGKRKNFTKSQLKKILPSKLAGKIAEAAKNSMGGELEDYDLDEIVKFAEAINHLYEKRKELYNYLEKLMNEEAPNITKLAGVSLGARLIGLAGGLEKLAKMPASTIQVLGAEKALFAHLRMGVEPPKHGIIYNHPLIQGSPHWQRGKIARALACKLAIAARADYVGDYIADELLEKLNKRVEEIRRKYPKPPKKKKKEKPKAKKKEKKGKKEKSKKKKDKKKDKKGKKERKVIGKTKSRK
Put plainly: co-sedimentation.

For assay [2], the target named is T2, Nop5mut2 (L143K, V217E) (Methanocaldococcus jannaschii, UniProt Q58105 1-414, L143K | V217E).
T2 sequence (looked up): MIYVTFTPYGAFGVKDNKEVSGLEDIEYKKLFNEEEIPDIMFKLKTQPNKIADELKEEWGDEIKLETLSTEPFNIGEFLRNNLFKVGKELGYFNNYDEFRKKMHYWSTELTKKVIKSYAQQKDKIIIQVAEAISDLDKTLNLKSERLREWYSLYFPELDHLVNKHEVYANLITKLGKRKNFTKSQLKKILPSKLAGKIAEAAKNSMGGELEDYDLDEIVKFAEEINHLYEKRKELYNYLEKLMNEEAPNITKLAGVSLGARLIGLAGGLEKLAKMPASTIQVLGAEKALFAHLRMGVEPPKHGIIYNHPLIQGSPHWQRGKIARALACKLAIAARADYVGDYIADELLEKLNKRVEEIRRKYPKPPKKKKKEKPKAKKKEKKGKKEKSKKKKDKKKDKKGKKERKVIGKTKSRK
The experiment in a line: co-sedimentation.

In assay [3] the target is T3, Methanocaldococcus jannaschii Nop5 (Methanocaldococcus jannaschii, UniProt Q58105 1-414).
T3 sequence (looked up): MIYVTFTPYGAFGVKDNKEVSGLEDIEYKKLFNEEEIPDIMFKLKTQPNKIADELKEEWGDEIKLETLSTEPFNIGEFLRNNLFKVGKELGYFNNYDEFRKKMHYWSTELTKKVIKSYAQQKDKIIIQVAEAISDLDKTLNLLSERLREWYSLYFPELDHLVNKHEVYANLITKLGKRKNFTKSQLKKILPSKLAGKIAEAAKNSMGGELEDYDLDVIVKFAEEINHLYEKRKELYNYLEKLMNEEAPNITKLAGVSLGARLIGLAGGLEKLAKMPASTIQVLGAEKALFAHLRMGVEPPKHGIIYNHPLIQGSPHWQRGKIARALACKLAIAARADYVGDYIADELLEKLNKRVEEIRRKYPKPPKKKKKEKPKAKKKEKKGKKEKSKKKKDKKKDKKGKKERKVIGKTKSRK
Put plainly: quantitative amino acid analysis.

B1: Methanocaldococcus jannaschii fibrillarin (enzyme, UniProt Q58108 1-230, looked up)
chain: MEDIKIKEIFENIYEVDLGDGLKRIATKSIVKGKKVYDEKIIKIGDEEYRIWNPNKSKLAAAIIKGLKVMPIKRDSKILYLGASAGTTPSHVADIADKGIVYAIEYAPRIMRELLDACAERENIIPILGDANKPQEYANIVEKVDVIYEDVAQPNQAEILIKNAKWFLKKGGYGMIAIKARSIDVTKDPKEIFKEQKEILEAGGFKIVDEVDIEPFEKDHVMFVGIWEGK
On to B1, for which the binding result in assay [1] and in assay [2] was “binds” in each case. For the same molecule, in assay [3], the “stoichiometry N” value stood at 1.
